For this assay, the target named is T1, phospholipase A2 (PLA2) from cobra venom (cobra, UniProt P60045 8-126).
T1 construct: source: purified to homogeneity from cobra venom
Nature of the assay: enzyme kinetic studies (competitive); kinetic studies; the peptide binds to PLA2 in a competitive manner; no conditions told. The note with it: both partners purified.

T1 sequence (P60045 8-126): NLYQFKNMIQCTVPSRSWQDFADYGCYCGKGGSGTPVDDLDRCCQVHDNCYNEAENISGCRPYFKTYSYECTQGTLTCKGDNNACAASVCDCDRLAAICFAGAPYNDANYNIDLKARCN

B1: Aβ(36-42) C-terminal heptapeptide Val-Gly-Gly-Val-Val-Ile-Ala (peptide)
peptide: VGGVVIA
notes: C-terminal heptapeptide of the Aβ polypeptide of Alzheimer's disease, residues 36-42; numbers count on: the Aβ peptide; also called VGGVVIA; Aβ_(36-42) peptide
One may read the Ki as a dissociation constant, usually derived from enzyme kinetics or from competition with a known ligand. With B1, the affinity corresponds to a Ki of 520 nM.

The record behind these values is article PMC4075491, “Crystallography based structure elucidation of the complex of C-terminal fragment of Aβ polypeptide of Alzheimer’s disease with phospholipase A2” (BMC Genomics, 2014).
